The assay deals with T1, Upf1-FL produced in E. coli (Upf1-FLc; amino acids 1–1118) (human, UniProt Q92900-2 1-1118).
T1 sequence (looked up): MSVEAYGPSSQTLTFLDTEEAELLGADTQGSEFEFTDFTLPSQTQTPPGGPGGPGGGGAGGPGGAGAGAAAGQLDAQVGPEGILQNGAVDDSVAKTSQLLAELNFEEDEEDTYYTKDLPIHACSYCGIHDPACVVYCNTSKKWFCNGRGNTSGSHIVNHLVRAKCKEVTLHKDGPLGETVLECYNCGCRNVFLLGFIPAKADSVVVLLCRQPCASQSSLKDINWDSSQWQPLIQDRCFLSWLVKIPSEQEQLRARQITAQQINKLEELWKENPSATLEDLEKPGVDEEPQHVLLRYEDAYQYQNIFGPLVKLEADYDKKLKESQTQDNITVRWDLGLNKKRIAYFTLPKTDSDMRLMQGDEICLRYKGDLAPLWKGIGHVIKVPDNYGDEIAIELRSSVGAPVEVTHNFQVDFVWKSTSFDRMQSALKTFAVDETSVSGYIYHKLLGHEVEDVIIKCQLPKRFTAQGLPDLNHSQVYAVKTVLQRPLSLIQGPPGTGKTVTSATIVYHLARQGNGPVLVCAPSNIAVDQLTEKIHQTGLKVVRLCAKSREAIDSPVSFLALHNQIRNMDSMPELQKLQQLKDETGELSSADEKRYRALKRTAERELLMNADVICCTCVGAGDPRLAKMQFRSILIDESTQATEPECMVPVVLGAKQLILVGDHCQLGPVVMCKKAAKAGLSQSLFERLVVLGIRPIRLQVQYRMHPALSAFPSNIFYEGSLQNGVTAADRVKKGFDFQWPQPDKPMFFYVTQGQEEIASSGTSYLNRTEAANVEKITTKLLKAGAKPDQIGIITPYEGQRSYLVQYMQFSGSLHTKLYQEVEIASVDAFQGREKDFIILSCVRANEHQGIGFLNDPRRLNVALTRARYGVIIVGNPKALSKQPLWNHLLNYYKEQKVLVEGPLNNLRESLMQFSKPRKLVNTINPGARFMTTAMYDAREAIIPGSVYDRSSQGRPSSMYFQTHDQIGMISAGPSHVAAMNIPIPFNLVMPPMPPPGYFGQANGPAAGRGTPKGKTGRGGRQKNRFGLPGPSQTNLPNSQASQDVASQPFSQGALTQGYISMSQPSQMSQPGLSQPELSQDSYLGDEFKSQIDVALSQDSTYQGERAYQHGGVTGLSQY
In words: pull-down.

B1: CBP-tagged Upf2 (761–1227) (domain or fragment, UniProt Q9HAU5 761-1227, looked up)
chain: EKTVKKKRPPLQEYVRKLLYKDLSKVTTEKVLRQMRKLPWQDQEVKDYVICCMINIWNVKYNSIHCVANLLAGLVLYQEDVGIHVVDGVLEDIRLGMEVNQPKFNQRRISSAKFLGELYNYRMVESAVIFRTLYSFTSFGVNPDGSPSSLDPPEHLFRIRLVCTILDTCGQYFDRGSSKRKLDCFLVYFQRYVWWKKSLEVWTKDHPFPIDIDYMISDTLELLRPKIKLCNSLEESIRQVQDLEREFLIKLGLVNDKDSKDSMTEGENLEEDEEEEEGGAETEEQSGNESEVNEPEEEEGSDNDDDEGEEEEEENTDYLTDSNKENETDEENTEVMIKGGGLKHVPCVEDEDFIQALDKMMLENLQQRSGESVKVHQLDVAIPLHLKSQLRKGPPLGGGEGEAESADTMPFVMLTRKGNKQQFKILNVPMSSQLAANHWNQQQAEQEERMRMKKLTLDINERQEQED
Turning to B1, the binding result is listed as “binds”.
